Data: article PMC3024951 (Molecular Brain, 2011)
Bridges are numbered along the chain shown (N, C = ends). Where no end group is shown, it is not given here.

B1: R10-15 (designed binder)
chain: LVCYQLLACRPGTLETCPDDFTCVATRHTLGHNLTQYCSHAYAIPACETPASCCQTDKCNG
B2: R10-13 (designed binder)
chain: LVCYQLLACRPGTLETCPDDFTCVATRHTLGHNLTQYCSHAHAIPTPRARTGCCQTDKCNG

Experiments:
[1] = molecular target: T1, Extracellular IL-6R (interleukin-6 receptor) (UniProt P08887 20-365); experiment: ELISA; […] (200 nM), 30 min; […]; details: both partners purified
T1 construct: also called soluble extracellular IL-6R; source: bought: PeproTech
T1 sequence: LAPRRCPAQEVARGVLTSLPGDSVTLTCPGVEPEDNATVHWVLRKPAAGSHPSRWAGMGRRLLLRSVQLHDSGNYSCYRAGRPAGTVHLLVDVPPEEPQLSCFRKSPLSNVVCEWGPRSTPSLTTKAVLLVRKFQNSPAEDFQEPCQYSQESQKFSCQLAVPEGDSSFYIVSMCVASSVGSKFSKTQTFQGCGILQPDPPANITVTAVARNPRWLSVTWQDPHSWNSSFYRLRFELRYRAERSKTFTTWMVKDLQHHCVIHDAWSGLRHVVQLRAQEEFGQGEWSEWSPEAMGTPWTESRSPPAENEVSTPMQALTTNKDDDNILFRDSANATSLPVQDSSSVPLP

[2] = molecular target: T1, Extracellular IL-6R (interleukin-6 …); experiment: ELISA; competitive inhibition: 45 nM biotinylated IL-6 and 1 nM-2 μM protein/peptide with IL-6R coated beads (350 nM) in PBS-BSA, 25°C, 1 h; detected with SA-HRP; details: both partners purified
[3] = molecular target: T1, Extracellular IL-6R (interleukin-6 …); experiment: cell-based or functional assay
[4] = molecular target: Extracellular IL-6R (interleukin-6 receptor) (UniProt P08887)

| Binder | Kd [1] [nM] | IC50 [2] [nM] | IC50, inhibition of the IL-6 dependent proliferation of DS-1 cells (IL-6 with IL-6R) [3] [nM] | EC50 (ED50), proliferation of DS-1 cells in the absence of IL-6 [4] [nM] |
| --- | --- | --- | --- | --- |
| B1 | 115 ± 9 | 102 ± 13 | – | – |
| B2 | 48 ± 8 | 113 ± 7 | 1400 | – |
| LVCYAPLPYTPGTLETGPDDFTCV (disulfide 3-23) [14-L1] | – | – | – | 30 |
